Data published in patent US11371056B2, “HPPD variants and methods of use” (BASF Agricultural Solutions Seed US LLC, priority 2017, dated 2022).

B1: SEQ ID NO:22 (protein)
chain: MADLYENPMGLMGFEFIEFASPTPGTLEPIFEIMGFTKVATHRSKNVHLYRQGEINLILNNEPNSIASYFAAEHGPSVCGMAFRVKDSQKAYNRALELGAQPIHIDTGPMELNLPAIKGIGGAPLYLIDRFGEGSSIYDIDFVYLEGVERNPVGAGLKVIDHLTHNVYRGRMVYWANFYEKLFNFREARYFDIKGEYTGLTSKAMSAPDGMIRIPLNEESSKGAGQIEEFLMQFNGEGIQHVAFLTDDLVKTWDALKKIGMRFMTAPGDEYYEMLEGRLPDHGEPVDQLQARGILLDGSSVEGDKRLLLQIFSEKLMGPVFFEFIQRKGDDGFGPHSFKVLFESIERDQVRRGVLTAD
modifications: mutant HPPD polypeptide
B2: SEQ ID NO:32 (protein)
chain: MADLYENPMGLMGFEFIEFASPTPGTLEPIFEIMGFTKVATHRSKNVHLYRQGEINLILNNEPNSIASYFAAEHGPSVCGMAFRVKDSQKAYNRALELGAQPIHIDTGPMELNLPAIKGIGGAPLYLIDRFGEGSSIYDIDFVYLEGVERNPVGAGLKVIDHLTHNVYRGRMVYWANFYEKLFNFREARYFDIKGEYTGLTSKAMSAPDGMIRIPLNEESSKGAGQIEEFLMQFNGEGIQHVAFLTDDLVKTWDALKKIGMRFMTAPGDEYYEMLEGRLPDHGEPVDQLQARGILLDGSSVEGDKRLLLQIFSEQLMGPVFFEFIQRKGDDGFGPHSFKVLFESMERDQVRRGVLTAD
modifications: mutant HPPD polypeptide
B3: SEQ ID NO:29 (protein)
chain: MADLYENPMGLMGFEFIEFASPTPGTLEPIFEIMGFTKVATHRSKNVHLYRQGEINLILNNEPNSIASYFAAEHGPSVCGMAFRVKDSQKAYNRALELGAQPIHIDTGPMELNLPAIKGIGGAPLYLIDRFGEGSSIYDIDFVYLEGVERNPVGAGLKVIDHLTHNVYRGRMVYWANFYEKLFNFREARYFDIKGEYTGLTSKAMSAPDGMIRIPLNEESSKGAGQIEEFLMQFNGEGIQHVAFLTDDLVKTWDALKKIGMRFMTAPGDEYYEMLEGRLPDHGEPVDQLQARGILLDGSSVEGDKRLLLQIFSEKLMGPVFFEFIQRKGDDGFGPHSFKVLFEQIERDQVRRGVLTAD
modifications: mutant HPPD polypeptide
B4: SEQ ID NO:24 (protein)
chain: MADLYENPMGLMGFEFIEFASPTPGTLEPIFEIMGFTKVATHRSKNVHLYRQGEINLILNNEPNSIASYFAAEHGPSVCGMAFRVKDSQKAYNRALELGAQPIHIDTGPMELNLPAIKGIGGAPLYLIDRFGEGSSIYDIDFVYLEGVERNPVGAGLKVIDHLTHNVYRGRMVYWANFYEKLFNFREARYFDIKGEYTGLTSKAMSAPDGMIRIPLNEESSKGAGQIEEFLMQFNGEGIQHVAFLTDDLVKTWDALKKIGMRFMTAPGDEYYEMLEGRLPDHGEPVDQLQARGILLDGSSVEGDKRLLLQIFSERLMGPVFFEFIQRKGDDGFGPHSFKVLFESIERDQVRRGVLTAD
modifications: mutant HPPD polypeptide
B5: SEQ ID NO:23 (protein)
chain: MADLYENPMGLMGFEFIEFASPTPGTLEPIFEIMGFTKVATHRSKNVHLYRQGEINLILNNEPNSIASYFAAEHGPSVCGMAFRVKDSQKAYNRALELGAQPIHIDTGPMELNLPAIKGIGGAPLYLIDRFGEGSSIYDIDFVYLEGVERNPVGAGLKVIDHLTHNVYRGRMVYWANFYEKLFNFREARYFDIKGEYTGLTSKAMSAPDGMIRIPLNEESSKGAGQIEEFLMQFNGEGIQHVAFLTDDLVKTWDALKKIGMRFMTAPGDEYYEMLEGRLPDHGEPVDQLQARGILLDGSSVEGDKRLLLQIFSEQLMGPVFFEFIQRKGDDGFGPHSFKVLFESIERDQVRRGVLTAD
modifications: mutant HPPD polypeptide
B6: SEQ ID NO:25 (protein)
chain: MADLYENPMGLMGFEFIEFASPTPGTLEPIFEIMGFTKVATHRSKNVHLYRQGEINLILNNEPNSIASYFAAEHGPSVCGMAFRVKDSQKAYNRALELGAQPIHIDTGPMELNLPAIKGIGGAPLYLIDRFGEGSSIYDIDFVYLEGVERNPVGAGLKVIDHLTHNVYRGRMVYWANFYEKLFNFREARYFDIKGEYTGLTSKAMSAPDGMIRIPLNEESSKGAGQIEEFLMQFNGEGIQHVAFLTDDLVKTWDALKKIGMRFMTAPGDEYYEMLEGRLPDHGEPVDQLQARGILLDGSSVEGDKRLLLQIFSETLMGPVFFEFIQRKGDDGFGPHSFKVLFESIERDQVRRGVLTAD
modifications: mutant HPPD polypeptide
B7: SEQ ID NO:30 (protein)
chain: MADLYENPMGLMGFEFIEFASPTPGTLEPIFEIMGFTKVATHRSKNVHLYRQGEINLILNNEPNSIASYFAAEHGPSVCGMAFRVKDSQKAYNRALELGAQPIHIDTGPMELNLPAIKGIGGAPLYLIDRFGEGSSIYDIDFVYLEGVERNPVGAGLKVIDHLTHNVYRGRMVYWANFYEKLFNFREARYFDIKGEYTGLTSKAMSAPDGMIRIPLNEESSKGAGQIEEFLMQFNGEGIQHVAFLTDDLVKTWDALKKIGMRFMTAPGDEYYEMLEGRLPDHGEPVDQLQARGILLDGSSVEGDKRLLLQIFSEQLMGPVFFEFIQRKGDDGFGPHSFKVLFEQIERDQVRRGVLTAD
modifications: mutant HPPD polypeptide
B8: SEQ ID NO:27 (protein)
chain: MADLYENPMGLMGFEFIEFASPTPGTLEPIFEIMGFTKVATHRSKNVHLYRQGEINLILNNEPNSIASYFAAEHGPSVCGMAFRVKDSQKAYNRALELGAQPIHIDTGPMELNLPAIKGIGGAPLYLIDRFGEGSSIYDIDFVYLEGVERNPVGAGLKVIDHLTHNVYRGRMVYWANFYEKLFNFREARYFDIKGEYTGLTSKAMSAPDGMIRIPLNEESSKGAGQIEEFLMQFNGEGIQHVAFLTDDLVKTWDALKKIGMRFLTAPGDEYYEMLEGRLPDHGEPVDQLQARGILLDGSSVEGDKRLLLQIFSERLMGPVFFEFIQRKGDDGFGPHSFKVLFESIERDQVRRGVLTAD
modifications: mutant HPPD polypeptide
B9: SEQ ID NO:31 (protein)
chain: MADLYENPMGLMGFEFIEFASPTPGTLEPIFEIMGFTKVATHRSKNVHLYRQGEINLILNNEPNSIASYFAAEHGPSVCGMAFRVKDSQKAYNRALELGAQPIHIDTGPMELNLPAIKGIGGAPLYLIDRFGEGSSIYDIDFVYLEGVERNPVGAGLKVIDHLTHNVYRGRMVYWANFYEKLFNFREARYFDIKGEYTGLTSKAMSAPDGMIRIPLNEESSKGAGQIEEFLMQFNGEGIQHVAFLTDDLVKTWDALKKIGMRFMTAPGDEYYEMLEGRLPDHGEPVDQLQARGILLDGSSVEGDKRLLLQIFSEKLMGPVFFEFIQRKGDDGFGPHSFKVLFESMERDQVRRGVLTAD
modifications: mutant HPPD polypeptide

Test system: Pseudomonas fluorescens HPPD polypeptide (wild-type and mutants)
Test: Coupled HPPD activity assay: turnover and residual turnover in crude HPPD polypeptide extracts with and without Cmpd. 1
Assay type: biochemical
Conditions: for Residual turnover [%]: 100 μM Cmpd. 1, normalised to turnover without inhibitor; for Turnover: absence of Cmpd. 1; for Turnover / Residual turnover: changes in absorbance (OD) at 320 nm in the coupled assay, 30 min; for Residual turnover: presence of 100 μM Cmpd. 1

Molecule | Residual turnover [%] | Turnover | Residual turnover
B1 | 42 | 0.259 | 
B2 | 57 | 0.269 | 0.154
B3 | 61 | 0.286 | 0.174
B4 | 54 | 0.271 | 0.147
B5 | 48 | 0.272 | 0.131
B6 | 45 | 0.25 | 0.112
B7 | 61 | 0.294 | 0.18
B8 | 58 | 0.262 | 0.153
B9 | 48 | 0.268 | 0.128
